Results on 40 sequences are retold here after the nanobody polyreactivity screen of Harvey et al. (2022).

A short description of the data set: yeast display, Sf9 membrane polyspecificity reagent, FACS + sequencing; frameworks hold sequencing errors. The method in brief: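 Genes from sorted yeast were amplified by colony PCR, read by MiSeq 2 × 250 sequencing and filtered on CDR length. These cells carried a synthetic nanobody library in Saccharomyces cerevisiae BJ5465 and were sorted by FACS into low and high (top ~1%) gates on anti-HA and streptavidin fluorescence. Polyreactivity is labelled according to the gate of origin.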
Turning to “QVQLVESGGGLGQAGGSLRLSCAASGFTFGGNGMGWYRPAPGKERELVASISWGGGSTYYADSVKGRFRISRDKAKNTVYLQMNSLKREDTAVYDCNADRYYWSSRPTSWFNYWGQGTQVTVSS”, the “polyreactivity (PSR sort gate)” value is given as “high polyreactivity”.

Consider “QVQLVESGGGLGQAGGSLRLSCAASGIIFWLYAMGWYRQAPGKDRELVAAITRSDGDTYYADSVKGRFTISRDNAKNTVYLQMNSLKPEDTAVYYCAARFTDYIHIWPFLLYNEVYYWGQGTQVTVSS”, for which the “polyreactivity (PSR sort gate)” value was “low polyreactivity”.

For “QVQLVESGGGLGQAGGSLRLSCAASGRIFGGYTMGWYRQAPGKEREFVDTISRSSGSTYYADSVKGRFTISRDHAKNTVYLQMNSLKPEDTAVYYCAAVYLYATGYDYWGQCTQVTVSS”, the “polyreactivity (PSR sort gate)” value is recorded as “high polyreactivity”.

Turning to “QVQLVESGGGLGQAGGSLRLSCAASGRIFPKYVMGWYRQAPGKERELVAAIDKSADRTYYADSVKGRFTISRDNAKNTVYLQMNSLKPEDTAVYYCATAGYRLLDYWGQGTQVTVSS”, the “polyreactivity (PSR sort gate)” value was “high polyreactivity”.

In the case of “QVQLVESGGGLGQAGGSLRLSCAASGRILKYYDMGWYRQAPGKERELVAAISVSGTSTYYADSVKGRFTISRDNAKNTVYLQMNSLKPEDTAVYYCATATGRYSFDYWGQGAQVTVSS”, the “polyreactivity (PSR sort gate)” value is “low polyreactivity”.

As for “QVQLVESGGGLGQAGGSLRLSCAASGRTFGDYVMGWYRQAPGKEREFVAAITDSGDRTYYADSVKGRFTISRDNAKNTVYLQMNSLKPEDTAVYYCNDEIWDWYYWYAYWGQGTQVTVSS”, the “polyreactivity (PSR sort gate)” value was “high polyreactivity”.

Consider “QVQLVESGGGLGQAGGSLRLSCAASGRTFTYNAMGWYRQAPGKERELVAAISYSGGRTYYADSVKGRFTISRDNAKNTVYLQMNSLKPEDTAVYYCARAYLGYYGRTYEYWGQGTQVTVSS”, for which the “polyreactivity (PSR sort gate)” value was “high polyreactivity”.

As for “QVQLVESGGGLGQAGGSLRLSCAASGSIFEGNGMGWYRPAPGKERELVAAITFRSGSTYYADSVKGRFTISRDNAKNTVYLQMNSLKPEDTAVYYCAADEYYQVSAYDYWGQGTQVTVSS”, the “polyreactivity (PSR sort gate)” value is on record as “low polyreactivity”.

For the sequence “QVQLVESGGGLGQAGGSLRLSCAASGSIFPYYAMGWYRPAPGTERELVASINQSDGTPYYADSVKGRFTISRDNAKNTVYLQMNSLKPEDTAVYYCAADTTLQAFIRYRPIGSYDSWGQGTQVTVSS”, the “polyreactivity (PSR sort gate)” value is “low polyreactivity”.

For “QVQLVESGGGLGQAGGSLRLSCAASGSIFQGYTMRWYRQARGKARELVAAITRSVTSTYYADSVKGRFTISRDNAKNTVYLQMNCLKPEDTAVYYCAATAYYARYWYDYWGQGTQVTVSS”, the “polyreactivity (PSR sort gate)” value is on record as “high polyreactivity”.

As for “QVQLVESGGGLGQAGGSLRLSCAASGSIFRGYAMGWYRQAPGKERELVAAISWSGGSTYYADSVKGRFTISRDNAKNTVYLQMNSLKPEDTAVYYCAADRDVFGYWYYYWGQGTQVTVSS”, the “polyreactivity (PSR sort gate)” value was “high polyreactivity”.

“QVQLVESGGGLGQAGGSLRLSCAASGSIFTQYAMGWFRPAPGKERELVATISKSSGSTYYADSVKGRFTNSRDNAKNTVYLQMNSLKPEDTAVYDCAARYTRAYPYYYWGQGTQVTVSS”: the “polyreactivity (PSR sort gate)” value is listed as “high polyreactivity”.

For the sequence “QVQLVESGGGLGQAGGSLRLSCAASGSIFYRNARGWYRQAPGKERELVASITSGGRTNYADSVKGRFTISRDNAKYSVYLQMNSLKPEDTAVFYCARGRASYTTSGPTPYTGYGYWRQGTQVTVSS”, the “polyreactivity (PSR sort gate)” value is on record as “low polyreactivity”.

On to “QVQLVESGGGLGQAGGSLRLSCAASGSIFYRYAMGWYRKAPGKERELVAAITRRGARTYYADSVKGRFTISRDNAKNTVYLQLNSLKPEDTAVYYCAATYYYWTGWRYVRGDYWGQGTQVTVSS”, for which the “polyreactivity (PSR sort gate)” value was “high polyreactivity”.

Consider “QVQLVESGGGLGQAGGSLRLSCAASGSIRDSNAMGWYRQAPGKERELVAAITSGGSTYYADSVKGRFTISRDNAKNTVYLQMNSLKPEDTAVYYCAAAYLGYGAVQPSYEGGYWGQGTQVTVSS”, for which the “polyreactivity (PSR sort gate)” value is listed as “low polyreactivity”.

“QVQLVESGGGLGQAGGSLRLSCAASGSIYNDNVMGWYRQAPGKERELVAGISRSGTRTYYADSVKGRFTISRDNAKNTVYLQMNSLKPEDTAVYYCAAAYGQARRYNASQYGSWGQGTQVTVSS”: the “polyreactivity (PSR sort gate)” value is reported as “high polyreactivity”.

For the sequence “QVQLVESGGGLGQAGGSLRLSCAASGSTFIDNAMGWYRQAPGKERELVAAINSSGGNTYYADSVKWRFTISRDNAKNTVYLQMNSLKPEDTAVYYCNAEFYVLYFYDYEYWGQGTQVTLSS”, the “polyreactivity (PSR sort gate)” value is reported as “low polyreactivity”.

Consider “QVQLVESGGGLGQAGGSLRLSCAASGSTFYRFTRGWYRQAPGKERELVASIRWTGGRTNYADSVKGRFTISRDNAKNTVYLQMNSLKPEDTAVYYCAAYLKYPYGASYGSWGQGTQVTVSS”, for which the “polyreactivity (PSR sort gate)” value is listed as “high polyreactivity”.

Consider “QVQLVESGGGLGQAGGSLRLSFAASGRTFWYNAMGWYRQAPGKERELVAAISNGGSTNYADSVKGRFTISRDYATNTVYLQMNSVKPEDTAVDYCNAGLYRSPYPGRLGSRYDYWGQGTQVTVSS”, for which the “polyreactivity (PSR sort gate)” value is reported as “high polyreactivity”.

With “QVQLVESGGGLGQAGGSLRLSSAASGGTFGSNTMGWYRQAPGKERELVAAITSGVSTYYADSVKGRFTISRDNAKNTVYLQMNSLKPEDTAVYYCAADTTQLQGVEGDYWGQGTQVTVSS”, the “polyreactivity (PSR sort gate)” value was “low polyreactivity”.

As to “QVQLVESGGGLIQAGGSLRLRCAASGSTFPYYAMGWYRQAPGKEREFVAAIRFSGSSTYYADSVKGRFTISRDNAKNTVFLQMNRLIPEDTAVYYCATDYWLPSYSYDYWGQGTQVTVSS”, the “polyreactivity (PSR sort gate)” value is “low polyreactivity”.

Turning to “QVQLVESGGGLLHAGGSLRLSCAASGRTFDHYAMGWYRQAPGKERELVAAISSRGSSTYYADSVKGRFTISRDNAKNTVYLQMNSLKPEDTAVYYCAAKYIRDYTSNPRGYWGHGTQVTVSS”, the “polyreactivity (PSR sort gate)” value is given as “high polyreactivity”.

Consider “QVQLVESGGGLLHAGGSLRLSFAASGRIFYYNGMGWYRQAPGKERELVAAISRGGSTYYADSVKGRFTISRDNAKNTVYLQMNRLLPEDTAVYDCAAYRGGLVNYWGQGSQVTVSS”, for which the “polyreactivity (PSR sort gate)” value is recorded as “high polyreactivity”.

“QVQLVESGGGLLQAGGSLRISCAASGRIFGRYAMGWYRQAPGKERELVASISRGGSTNYADSVKGRFTISRDNAKNTVYLQMNSLKPEDTAVYYCAADLNAYPQRAYDYWGQGTQVTVSS”: the “polyreactivity (PSR sort gate)” value is “low polyreactivity”.

On to “QVQLVESGGGLLQAGGSLRLSCAASGFIFKYYAMGWYRQAPGKEREFVAGINWSGTSTYYADSVKGRFTISRDNAKNTVYLQMNSLKPEDTAVYYCAATAYRGRTSRYYYWGQGTQVTVSS”, for which the “polyreactivity (PSR sort gate)” value is “high polyreactivity”.

As to “QVQLVESGGGLLQAGGSLRLSCAASGFTFATYAMGWYRQAPGKERELVAAISTSGGSTYYADSVKGRFTISRDNAKNTVYLQMNSLKPEDTAVYYCNAVSRSYRYAGVPGFHYDYWGQGTQVTVSS”, the “polyreactivity (PSR sort gate)” value is given as “high polyreactivity”.

As for “QVQLVESGGGLLQAGGSLRLSCAASGFTFGFYGRGWYRQAPGKERELVAAISYSGGTTYYADSVKARFTIARDNAKNTVYLQMNCLKPQDTAVNYCNTQSRETEDADYWGQGTQVTVSS”, the “polyreactivity (PSR sort gate)” value is “high polyreactivity”.

For “QVQLVESGGGLLQAGGSLRLSCAASGFTFRSYDMGWYRQAPGKERELVAAISWRGGRTYYADSVKGRFTISRDNAKNTVDLQMNSLKPEDTAVYYCATDWYWGSYAPYTTRAHFDYWGQGTQVTVSS”, the “polyreactivity (PSR sort gate)” value was “high polyreactivity”.

For the sequence “QVQLVESGGGLLQAGGSLRLSCAASGFTFTTYAMGWYRQAPGKERELVAAITRRGGSTYYADSVKGRFTISRDNAKNTVYFQMNSLKPEDTAVYYCAAGGGWGLDYWGQGTQVTVSW”, the “polyreactivity (PSR sort gate)” value is given as “high polyreactivity”.

With “QVQLVESGGGLLQAGGSLRLSCAASGLTFVDYAMGWYRQAPGKERELVAAITTSGGSITYYSDSVKGRFTISRDNAKNTVYLQMNSLKPEDTAVYSCNADYGIYTDSFRGPDYESWGQGTQVTVSS”, the “polyreactivity (PSR sort gate)” value was “low polyreactivity”.

With “QVQLVESGGGLLQAGGSLRLSCAASGMGWYRQAPGKERELVAAISWNGGSTYYADSVKGRFTISRDNAKNTVYLQMNSLKPEDTAVYYCAADYSTVASSLYLDSWGQGTQVTVSS”, the “polyreactivity (PSR sort gate)” value was “low polyreactivity”.

Regarding “QVQLVESGGGLLQAGGSLRLSCAASGRIFRGYAMGWYRQAPGKESELVAGITSGGSTKYADSVKGRFTISRDNAKNTVYLQMNSLKPEDTAVYYCAKGYLPYSYYARPYIRYYWGQGTQVTVSS”, the “polyreactivity (PSR sort gate)” value is reported as “high polyreactivity”.

Regarding “QVQLVESGGGLLQAGGSLRLSCAASGRIGRYAMGCYRQAPGKERQLVAVITSGDSTYYADSVKGRFTISRDNAKNTVYLQMNSLKPEESPVESCAADSYRRWGNLFTGNEYDSWGQGTQVTVSS”, the “polyreactivity (PSR sort gate)” value is on record as “low polyreactivity”.

As for “QVQLVESGGGLLQAGGSLRLSCAASGRILGPNAMGWYRQAPGTERELVAAINSGGSTNYADSVKGRFTISRDNAKNTVYLQMNSLKPEDTAVYYCATDKARVAGYGVEYDYWGQGTQVTVSS”, the “polyreactivity (PSR sort gate)” value was “low polyreactivity”.

For “QVQLVESGGGLLQAGGSLRLSCAASGRNFKYYAMGWYRQAPGKEREFVAAISRSGGRTYYADSVKGRFTISRDNAKNTVYLQMNSLKPEDTAVYYCAAQPSSYVYYRQPFHYWGQGTQVTVSS”, the “polyreactivity (PSR sort gate)” value was “high polyreactivity”.

Take “QVQLVESGGGLLQAGGSLRLSCAASGRTFNYYAMGWYRQAPGKERELVAAISRSGGSTYYADSVKGRFTISRDNAKNTVFLQMNSLKPEDTAVYYCKSDRGSIYGWGQGTQVTVSS”: the “polyreactivity (PSR sort gate)” value is “high polyreactivity”.

Take “QVQLVESGGGLLQAGGSLRLSCAASGRTFPYYAMGWYRQAPGKERELVAAISSSGGSTYYADSVKGRFTISRDNAKNTVYLEMNSLKPEDTEVYYCAAVYQFIKWGDSYEYWGQGTQVTVSS”: the “polyreactivity (PSR sort gate)” value was “high polyreactivity”.

On to “QVQLVESGGGLLQAGGSLRLSCAASGRTFVWNAKGWYRQAPGKERELVAPITNDGSTNYADSVKGRFTISRDNAKNTVYLQMNSLKPEDTAVYYCAKRPRGSRIVPGGYDSWGQGTQVTVSS”, for which the “polyreactivity (PSR sort gate)” value is reported as “low polyreactivity”.

Turning to “QVQLVESGGGLLQAGGSLRLSCAASGRTFVYYAMGWYRPAPGKERELVAAITSSGSRTYYADSVKGRFTISRDNAKNTVYLQMNSLKPEDTAVYYCAADYVAHGDYRVLYDYWGQGTQVTVSS”, the “polyreactivity (PSR sort gate)” value is listed as “low polyreactivity”.

Take “QVQLVESGGGLLQAGGSLRLSCAASGSIFGVNAMGWYIQAPGKERELVASITGGDSTNYADSVKGRFTISRDNAKNTVYLQINSLKTEDTAVYYCNARVADAWASGYDYWGQGTQVTVSS”: the “polyreactivity (PSR sort gate)” value is on record as “low polyreactivity”.
